# Test results as given in paper doi:10.1101/2020.11.13.382242.
# Where “and” joins values, the source holds several entries; their conditions need not be identical. Equal entries are not always repeated.
# Columns and labels:
# Assay in all cases: fluorescence fluctuation spectroscopy
# [1] = molecular target: Full-length GFP-CPSF6 (isoform 2; cell-free expressed, N-terminal GFP tag)
# [2] = molecular target: HIV-1 capsid particles self-assembled from CA [change] (disulfide cross-linked cones and tubes) (HIV-1)
# [3] = molecular target: AF568-labelled HIV-1 capsid particles co-assembled from CA [change] and CA [change]-AF568 (HIV-1)
# Full-length GFP-CPSF6 (isoform 2; cell-free expressed, N-terminal GFP tag), sequence (Q16630 whole entry, canonical isoform): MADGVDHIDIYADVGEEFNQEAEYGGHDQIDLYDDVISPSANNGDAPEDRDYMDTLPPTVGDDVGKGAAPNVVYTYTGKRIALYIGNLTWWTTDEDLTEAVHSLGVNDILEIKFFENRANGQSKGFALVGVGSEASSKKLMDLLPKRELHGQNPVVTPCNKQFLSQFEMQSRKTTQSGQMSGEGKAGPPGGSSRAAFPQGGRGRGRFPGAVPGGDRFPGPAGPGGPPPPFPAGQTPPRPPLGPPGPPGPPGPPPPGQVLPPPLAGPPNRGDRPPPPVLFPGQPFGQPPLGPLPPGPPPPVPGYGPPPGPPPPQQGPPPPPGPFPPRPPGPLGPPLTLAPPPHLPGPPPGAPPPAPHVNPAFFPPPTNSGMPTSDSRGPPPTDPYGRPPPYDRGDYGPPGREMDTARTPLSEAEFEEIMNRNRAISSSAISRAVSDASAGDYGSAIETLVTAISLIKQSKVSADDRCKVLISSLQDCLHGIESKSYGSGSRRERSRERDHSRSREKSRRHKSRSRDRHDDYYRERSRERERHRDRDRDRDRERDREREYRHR
substance,measurement,setting,value
"Full-length GFP-CPSF6 (isoform 2; cell-free expressed, N-terminal GFP tag) (natural protein)",fold increase in the brightness parameter compared to monomeric GFP,[1],4 fold and 8 fold
same,fold increase in the brightness parameter in the presence of capsid,[2],10 fold
Untagged recombinant CypA labelled with Alexa Fluor 488-C5 maleimide (from UniProt P62937 1-165) (natural protein),Kd,[3],16.5 µM
same,analyte:CA intensity ratio relative to CPSF6-AF488,[3],5 fold
